Reference: patent US20170298106A1 (ZYNGENIA, published 2017)

How the values were obtained:
angiopoietin-2 (Ang2) [1] = target: T1, angiopoietin-2 (Ang2) (human, UniProt O15123 68-496, limits assumed); test: ELISA on rhAng2-coated wells, MRD-MBP fusion, anti-MBP detection; EC50 by 4 parameter fit
T1 construct: Plain and biotinylated Ang2 are kept as one molecule; also called rhAng2; recombinant Ang2
T1 sequence (looked up): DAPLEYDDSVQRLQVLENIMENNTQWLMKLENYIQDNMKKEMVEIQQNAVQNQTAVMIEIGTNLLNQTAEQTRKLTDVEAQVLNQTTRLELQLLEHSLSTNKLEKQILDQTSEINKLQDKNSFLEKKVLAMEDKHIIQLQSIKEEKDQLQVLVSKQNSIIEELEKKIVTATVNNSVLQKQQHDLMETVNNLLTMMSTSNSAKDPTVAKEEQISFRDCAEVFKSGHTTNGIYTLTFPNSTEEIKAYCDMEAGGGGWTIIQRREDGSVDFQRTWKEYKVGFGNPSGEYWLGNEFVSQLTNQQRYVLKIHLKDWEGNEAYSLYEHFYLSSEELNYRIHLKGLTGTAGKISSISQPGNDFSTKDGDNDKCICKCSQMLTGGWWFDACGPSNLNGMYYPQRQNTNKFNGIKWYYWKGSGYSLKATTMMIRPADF
Protocol: (§1) MBP fusion proteins were serially diluted in Blocking buffer and added to wells for 2 hours at RT. After washing (8×300 μl wash buffer), samples were treated with HRP-mouse anti MBP mAb (NEB, cat # E8038S), diluted 1:4000 in Blocking buffer. After incubation for 1 hour at RT, wells were washed (8×300 μl wash buffer) prior to receiving 100 μl of TMB substrate (KPL Laboratories). Color development was stopped with 100 μl of H₂SO₄, and absorbance was read at 450 nm.
(§2) Bound fusion proteins were detected with anti-MBP mAb. Assayed proteins represent mutational variants of the sequence […] […] (L17D) (SEQ ID NO:107). In this series, the motif MDD within L17D was mutated at the first D to all other possible amino acids (except cysteine). Other MRDs tested were “Lm32 KtoS” and a dimer of Lm32 (2×Lm32).

angiopoietin-2 (Ang2) [2] = target: T1, angiopoietin-2 (Ang2); test: ELISA, MRD-MBP fusions on plate-bound rhAng2, anti-MBP detection
Protocol: as §1, §2

EC50 (angiopoietin-2 (Ang2) [1]): 5 pM | fold higher affinity than L17D or Lm32 KtoS (angiopoietin-2 (Ang2) [2]): > 10 fold
B1: 2×Lm32-MBP fusion (other, not shown: small tags and cut ends)
peptide: PGKGGGSMGAQTNFMPMDNDELLLYEQFILQQGLEGGGSMGAQTNFMPMDNDELLLYEQFILQQGLE
notes: also called Lm32 dimer
